Assay results published in the supplement of paper PMC10567573.

B1: ZNF263 (parent)
chain: QPKKLHLCPLCGKNFSNNSNLIRH
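Note: lentivirally expressed fusions sorted by FACS into six bins by GFP to DsRed ratio, PSI derived from sequencing read proportions per bin multiplied by bin number.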

Variants of: B1
Test: protein stability index of a GFP-peptide fusion (GPS, HEK-293T) (PSI 1-6); higher = more stable
Conditions: c terminus: a fixed tail appended
In the case of QPKKLHLCPLCGKNFLNNSNLIRH, the protein stability index is reported as 2.34.
QPKKLHLCPLCGKVFSNNSNLIRH showed a protein stability index of 3.04.
QPKKLHLCPLCGKYFSNNSNLIRH showed a protein stability index of 2.57.
Work on QPKKLHLCPLCGKWFSNNSNLIRH yielded a protein stability index of 3.51.
For QPKKLHLCPLCGKEFSNNSNLIRH, the protein stability index was 3.52.
In the case of QPKKLHLCPLCGKLFSNNSNLIRH, the protein stability index is reported as 2.84.
QPKKLHLCPLCGKDFSNNSNLIRH gave a protein stability index of 2.08.
With QPKKLHLCPLCGKQFSNNSNLIRH the protein stability index was 3.1.
QPKKLHLCPLCGKPFSNNSNLIRH gave a protein stability index of 2.61.
Work on QPKKLHLCPLCGKIFSNNSNLIRH yielded a protein stability index of 3.33.
In the case of QPKKLHLCPLCGKCFSNNSNLIRH, the protein stability index is reported as 3.93.
QPKKLHLCPLCGKMFSNNSNLIRH showed a protein stability index of 2.83.
QPKKLHLCPLCGKHFSNNSNLIRH gave a protein stability index of 3.06.
Work on QPKKLHLCPLCGKFFSNNSNLIRH yielded a protein stability index of 2.69.
For QPKKLHLCPLCGKTFSNNSNLIRH, the protein stability index was 2.97.
Variant QPKKLHLCPLCGKRFSNNSNLIRH has a protein stability index of 2.35.
Variant QPKKLHLCPLCGKAFSNNSNLIRH has a protein stability index of 3.29.
With QPKKLHLCPLCGKSFSNNSNLIRH the protein stability index was 3.48.
QPKKLHLCPLCGKGFSNNSNLIRH showed a protein stability index of 2.63.
QPKKLHLCPLCGKKFSNNSNLIRH gave a protein stability index of 2.94.
With QPKKLHLCPKCGKNFSNNSNLIRH the protein stability index was 3.44.
Work on QPKKLHLCPDCGKNFSNNSNLIRH yielded a protein stability index of 3.78.
QPKKLHLCPYCGKNFSNNSNLIRH gave a protein stability index of 2.53.
In the case of QPKKLHLCPMCGKNFSNNSNLIRH, the protein stability index is reported as 3.28.
QPKKLHLCPHCGKNFSNNSNLIRH showed a protein stability index of 3.56.
Work on QPKKLHLCPVCGKNFSNNSNLIRH yielded a protein stability index of 2.96.
QPKKLHLCPACGKNFSNNSNLIRH gave a protein stability index of 2.5.
With QPKKLHLCPRCGKNFSNNSNLIRH the protein stability index was 3.32.
QPKKLHLCPCCGKNFSNNSNLIRH showed a protein stability index of 4.03.
For QPKKLHLCPWCGKNFSNNSNLIRH, the protein stability index was 2.38.
In the case of QPKKLHLCPSCGKNFSNNSNLIRH, the protein stability index is reported as 4.12.
With QPKKLHLCPECGKNFSNNSNLIRH the protein stability index was 3.47.
With QPKKLHLCPICGKNFSNNSNLIRH the protein stability index was 2.83.
With QPKKLHLCPPCGKNFSNNSNLIRH the protein stability index was 2.62.
With QPKKLHLCPFCGKNFSNNSNLIRH the protein stability index was 3.03.
With QPKKLHLCPQCGKNFSNNSNLIRH the protein stability index was 2.91.
QPKKLHLCPGCGKNFSNNSNLIRH gave a protein stability index of 2.87.
QPKKLHLCPTCGKNFSNNSNLIRH gave a protein stability index of 2.84.
QPKKLHLCPNCGKNFSNNSNLIRH gave a protein stability index of 3.16.
QPKKLHLCPLCGKNFSNFSNLIRH showed a protein stability index of 2.76.
In the case of QPKKLHLCPLCGKNFSNMSNLIRH, the protein stability index is reported as 2.5.
With QPKKLHLCPLCGKNFSNRSNLIRH the protein stability index was 3.36.
Variant QPKKLHLCPLCGKNFSNWSNLIRH has a protein stability index of 2.73.
For QPKKLHLCPLCGKNFSNKSNLIRH, the protein stability index was 2.31.
Work on QPKKLHLCPLCGKNFSNESNLIRH yielded a protein stability index of 3.66.
QPKKLHLCPLCGKNFSNTSNLIRH showed a protein stability index of 2.45.
Variant QPKKLHLCPLCGKNFSNPSNLIRH has a protein stability index of 3.28.
Variant QPKKLHLCPLCGKNFSNSSNLIRH has a protein stability index of 2.39.
QPKKLHLCPLCGKNFSNISNLIRH showed a protein stability index of 2.33.
In the case of QPKKLHLCPLCGKNFSNHSNLIRH, the protein stability index is reported as 2.82.
Variant QPKKLHLCPLCGKNFSNASNLIRH has a protein stability index of 2.97.
Work on QPKKLHLCPLCGKNFSNGSNLIRH yielded a protein stability index of 1.8.
For QPKKLHLCPLCGKNFSNCSNLIRH, the protein stability index was 2.48.
With QPKKLHLCPLCGKNFSNVSNLIRH the protein stability index was 2.86.
In the case of QPKKLHLCPLCGKNFSNDSNLIRH, the protein stability index is reported as 2.8.
QPKKLHLCPLCGKNFSNLSNLIRH gave a protein stability index of 3.11.
Work on QPKKLHLCPLCGKNFSNQSNLIRH yielded a protein stability index of 3.17.
Work on QPKKLHLCGLCGKNFSNNSNLIRH yielded a protein stability index of 2.26.
With QPKKLHLCCLCGKNFSNNSNLIRH the protein stability index was 2.3.
For QPKKLHLCNLCGKNFSNNSNLIRH, the protein stability index was 2.4.
QPKKLHLCMLCGKNFSNNSNLIRH gave a protein stability index of 2.31.
Work on QPKKLHLCQLCGKNFSNNSNLIRH yielded a protein stability index of 2.67.
For QPKKLHLCTLCGKNFSNNSNLIRH, the protein stability index was 2.66.
Variant QPKKLHLCYLCGKNFSNNSNLIRH has a protein stability index of 2.61.
Work on QPKKLHLCILCGKNFSNNSNLIRH yielded a protein stability index of 1.89.
Work on QPKKLHLCFLCGKNFSNNSNLIRH yielded a protein stability index of 1.93.
In the case of QPKKLHLCVLCGKNFSNNSNLIRH, the protein stability index is reported as 2.1.
In the case of QPKKLHLCWLCGKNFSNNSNLIRH, the protein stability index is reported as 2.4.
QPKKLHLCRLCGKNFSNNSNLIRH gave a protein stability index of 2.25.
Variant QPKKLHLCELCGKNFSNNSNLIRH has a protein stability index of 2.56.
With QPKKLHLCSLCGKNFSNNSNLIRH the protein stability index was 2.52.
For QPKKLHLCHLCGKNFSNNSNLIRH, the protein stability index was 2.38.
QPKKLHLCDLCGKNFSNNSNLIRH showed a protein stability index of 2.56.
Work on QPKKLHLCKLCGKNFSNNSNLIRH yielded a protein stability index of 2.63.
In the case of QPKKLHLCLLCGKNFSNNSNLIRH, the protein stability index is reported as 2.21.
QPKKLHLCPLAGKNFSNNSNLIRH gave a protein stability index of 3.13.
QPKKLHLCPLPGKNFSNNSNLIRH showed a protein stability index of 3.36.
With QPKKLHLCPLQGKNFSNNSNLIRH the protein stability index was 2.91.
Variant QPKKLHLCPLTGKNFSNNSNLIRH has a protein stability index of 3.11.
QPKKLHLCPLIGKNFSNNSNLIRH gave a protein stability index of 2.16.
Work on QPKKLHLCPLKGKNFSNNSNLIRH yielded a protein stability index of 2.62.
With QPKKLHLCPLEGKNFSNNSNLIRH the protein stability index was 3.18.
Variant QPKKLHLCPLMGKNFSNNSNLIRH has a protein stability index of 2.07.
With QPKKLHLCPLVGKNFSNNSNLIRH the protein stability index was 2.48.
QPKKLHLCPLHGKNFSNNSNLIRH showed a protein stability index of 2.88.
Variant QPKKLHLCPLDGKNFSNNSNLIRH has a protein stability index of 3.58.
For QPKKLHLCPLFGKNFSNNSNLIRH, the protein stability index was 1.87.
Variant QPKKLHLCPLRGKNFSNNSNLIRH has a protein stability index of 2.83.
With QPKKLHLCPLWGKNFSNNSNLIRH the protein stability index was 1.74.
With QPKKLHLCPLLGKNFSNNSNLIRH the protein stability index was 2.41.
QPKKLHLCPLYGKNFSNNSNLIRH gave a protein stability index of 1.68.
In the case of QPKKLHLCPLNGKNFSNNSNLIRH, the protein stability index is reported as 2.8.
Variant QPKKLHLCPLSGKNFSNNSNLIRH has a protein stability index of 2.74.
In the case of QPKKLHLCPLGGKNFSNNSNLIRH, the protein stability index is reported as 2.56.
